Test results from patent US20050096288.

Biological target: VLDL (apolipoprotein B-100 containing) (Homo sapiens) (UniProt P04114)
Assay: EMSA
Settings: LDL has greater affinity

Chain of UniProt P04114 (P04114 28-4563): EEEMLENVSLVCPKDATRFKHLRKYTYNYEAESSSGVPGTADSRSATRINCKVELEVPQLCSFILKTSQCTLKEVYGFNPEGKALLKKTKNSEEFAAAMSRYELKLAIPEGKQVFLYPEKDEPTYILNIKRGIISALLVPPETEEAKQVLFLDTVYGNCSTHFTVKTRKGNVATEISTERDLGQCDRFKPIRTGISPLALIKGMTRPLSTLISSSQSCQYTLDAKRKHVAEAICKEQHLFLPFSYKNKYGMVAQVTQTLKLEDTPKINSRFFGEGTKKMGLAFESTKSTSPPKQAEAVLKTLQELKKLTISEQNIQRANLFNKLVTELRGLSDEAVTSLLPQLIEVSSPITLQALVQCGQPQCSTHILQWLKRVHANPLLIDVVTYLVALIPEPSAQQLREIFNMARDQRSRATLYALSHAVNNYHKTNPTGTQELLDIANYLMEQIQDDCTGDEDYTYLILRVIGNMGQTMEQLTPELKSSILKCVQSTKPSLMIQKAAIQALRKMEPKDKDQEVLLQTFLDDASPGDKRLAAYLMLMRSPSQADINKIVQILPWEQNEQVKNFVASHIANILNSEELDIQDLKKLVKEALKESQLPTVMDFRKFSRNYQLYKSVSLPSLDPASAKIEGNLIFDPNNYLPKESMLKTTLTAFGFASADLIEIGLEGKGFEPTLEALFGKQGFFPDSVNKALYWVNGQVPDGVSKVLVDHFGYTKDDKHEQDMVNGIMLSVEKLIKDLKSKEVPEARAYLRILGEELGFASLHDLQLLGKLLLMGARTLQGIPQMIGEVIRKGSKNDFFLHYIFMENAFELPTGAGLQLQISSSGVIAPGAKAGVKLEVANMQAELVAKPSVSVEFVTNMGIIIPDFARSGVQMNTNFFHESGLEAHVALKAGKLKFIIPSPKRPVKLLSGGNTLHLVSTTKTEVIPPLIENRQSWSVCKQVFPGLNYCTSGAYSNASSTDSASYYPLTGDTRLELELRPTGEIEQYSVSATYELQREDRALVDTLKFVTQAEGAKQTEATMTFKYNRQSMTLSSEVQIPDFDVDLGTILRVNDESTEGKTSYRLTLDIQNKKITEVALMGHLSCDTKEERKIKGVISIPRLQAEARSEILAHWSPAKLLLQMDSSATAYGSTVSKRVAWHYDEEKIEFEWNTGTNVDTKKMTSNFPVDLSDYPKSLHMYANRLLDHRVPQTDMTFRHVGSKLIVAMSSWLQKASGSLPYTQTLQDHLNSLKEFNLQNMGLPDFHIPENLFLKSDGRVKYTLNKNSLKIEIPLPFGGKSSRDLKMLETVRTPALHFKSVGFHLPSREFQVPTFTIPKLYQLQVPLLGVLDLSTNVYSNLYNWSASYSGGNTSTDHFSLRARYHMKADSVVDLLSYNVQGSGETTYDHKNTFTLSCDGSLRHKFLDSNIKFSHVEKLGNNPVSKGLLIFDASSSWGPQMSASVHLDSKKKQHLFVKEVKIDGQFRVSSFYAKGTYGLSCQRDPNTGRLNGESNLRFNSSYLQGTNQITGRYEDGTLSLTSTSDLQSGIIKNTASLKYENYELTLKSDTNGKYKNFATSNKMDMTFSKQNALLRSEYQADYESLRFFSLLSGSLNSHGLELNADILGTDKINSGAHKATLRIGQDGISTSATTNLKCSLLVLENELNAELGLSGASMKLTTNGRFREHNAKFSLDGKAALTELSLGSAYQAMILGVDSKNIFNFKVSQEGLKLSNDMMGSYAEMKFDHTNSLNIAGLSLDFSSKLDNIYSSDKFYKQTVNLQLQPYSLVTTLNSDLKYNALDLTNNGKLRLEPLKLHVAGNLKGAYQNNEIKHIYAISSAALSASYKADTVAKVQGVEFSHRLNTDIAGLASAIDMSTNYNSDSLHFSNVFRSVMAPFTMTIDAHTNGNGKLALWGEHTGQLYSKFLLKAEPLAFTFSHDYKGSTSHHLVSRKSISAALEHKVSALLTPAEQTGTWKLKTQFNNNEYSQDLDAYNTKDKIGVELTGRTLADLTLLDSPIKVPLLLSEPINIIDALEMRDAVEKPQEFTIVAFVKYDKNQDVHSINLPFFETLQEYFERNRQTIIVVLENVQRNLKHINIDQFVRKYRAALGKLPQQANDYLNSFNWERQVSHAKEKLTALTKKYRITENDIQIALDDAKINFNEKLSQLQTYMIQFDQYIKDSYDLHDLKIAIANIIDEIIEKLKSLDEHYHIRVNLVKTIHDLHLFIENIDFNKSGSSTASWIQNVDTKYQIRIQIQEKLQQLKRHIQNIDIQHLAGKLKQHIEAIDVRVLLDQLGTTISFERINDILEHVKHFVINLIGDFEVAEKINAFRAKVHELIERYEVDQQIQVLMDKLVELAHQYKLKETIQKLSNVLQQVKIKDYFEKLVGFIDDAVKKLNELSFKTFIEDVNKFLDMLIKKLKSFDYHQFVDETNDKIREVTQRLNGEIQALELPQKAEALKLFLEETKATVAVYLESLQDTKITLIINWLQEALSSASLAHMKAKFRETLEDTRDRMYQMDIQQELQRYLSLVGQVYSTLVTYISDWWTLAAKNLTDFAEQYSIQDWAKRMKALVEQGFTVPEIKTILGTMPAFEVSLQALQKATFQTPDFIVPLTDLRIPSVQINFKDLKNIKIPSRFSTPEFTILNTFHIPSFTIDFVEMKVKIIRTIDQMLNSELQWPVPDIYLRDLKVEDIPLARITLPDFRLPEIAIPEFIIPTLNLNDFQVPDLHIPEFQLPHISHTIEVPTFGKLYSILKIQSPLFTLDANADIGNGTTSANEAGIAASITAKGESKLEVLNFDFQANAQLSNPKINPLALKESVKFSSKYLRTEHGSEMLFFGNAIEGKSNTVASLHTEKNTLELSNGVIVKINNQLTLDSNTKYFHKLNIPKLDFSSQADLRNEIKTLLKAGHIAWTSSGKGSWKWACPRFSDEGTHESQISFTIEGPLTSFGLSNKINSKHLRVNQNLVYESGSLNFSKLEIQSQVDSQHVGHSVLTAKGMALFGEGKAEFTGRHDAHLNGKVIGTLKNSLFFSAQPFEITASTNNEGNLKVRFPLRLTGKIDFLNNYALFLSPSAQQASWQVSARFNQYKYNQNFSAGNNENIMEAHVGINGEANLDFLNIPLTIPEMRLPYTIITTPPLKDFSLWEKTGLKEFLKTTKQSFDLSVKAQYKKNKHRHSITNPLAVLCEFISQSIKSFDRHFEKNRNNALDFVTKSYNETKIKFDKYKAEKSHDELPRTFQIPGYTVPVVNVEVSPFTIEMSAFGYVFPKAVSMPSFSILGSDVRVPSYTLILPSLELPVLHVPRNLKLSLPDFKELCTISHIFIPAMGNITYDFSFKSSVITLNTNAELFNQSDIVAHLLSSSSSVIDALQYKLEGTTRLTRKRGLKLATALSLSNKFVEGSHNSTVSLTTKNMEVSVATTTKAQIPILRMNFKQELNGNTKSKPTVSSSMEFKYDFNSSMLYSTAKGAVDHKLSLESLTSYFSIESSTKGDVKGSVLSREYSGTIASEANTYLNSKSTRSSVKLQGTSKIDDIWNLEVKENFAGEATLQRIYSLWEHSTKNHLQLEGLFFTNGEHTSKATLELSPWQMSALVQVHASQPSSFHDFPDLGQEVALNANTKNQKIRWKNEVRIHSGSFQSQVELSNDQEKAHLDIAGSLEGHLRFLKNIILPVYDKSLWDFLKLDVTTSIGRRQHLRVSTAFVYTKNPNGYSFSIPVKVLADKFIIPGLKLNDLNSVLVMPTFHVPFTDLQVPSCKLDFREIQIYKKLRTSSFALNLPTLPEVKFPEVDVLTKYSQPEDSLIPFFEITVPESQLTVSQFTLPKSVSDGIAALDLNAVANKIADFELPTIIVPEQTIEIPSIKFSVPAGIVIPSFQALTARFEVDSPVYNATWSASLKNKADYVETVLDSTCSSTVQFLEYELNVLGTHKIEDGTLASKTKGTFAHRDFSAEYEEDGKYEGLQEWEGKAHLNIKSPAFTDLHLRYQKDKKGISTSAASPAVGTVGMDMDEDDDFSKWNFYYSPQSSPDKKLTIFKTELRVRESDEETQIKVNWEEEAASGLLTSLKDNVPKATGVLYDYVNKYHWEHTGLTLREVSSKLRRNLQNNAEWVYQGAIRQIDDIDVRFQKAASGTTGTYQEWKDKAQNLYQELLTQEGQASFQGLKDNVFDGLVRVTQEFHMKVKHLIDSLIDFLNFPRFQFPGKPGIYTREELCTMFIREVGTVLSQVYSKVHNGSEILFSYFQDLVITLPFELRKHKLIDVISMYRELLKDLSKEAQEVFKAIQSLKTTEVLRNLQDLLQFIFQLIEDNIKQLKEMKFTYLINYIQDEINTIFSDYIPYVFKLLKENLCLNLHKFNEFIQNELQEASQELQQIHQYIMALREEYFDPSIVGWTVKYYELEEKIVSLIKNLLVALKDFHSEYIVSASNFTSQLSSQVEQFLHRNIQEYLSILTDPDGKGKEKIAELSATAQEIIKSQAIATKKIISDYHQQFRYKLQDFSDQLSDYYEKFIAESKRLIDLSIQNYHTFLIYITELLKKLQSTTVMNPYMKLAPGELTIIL

Substance | binding signal (% of total labeled DNA)
E/C oligonucleotide (E-box CANNTG and CCAAT) | < 1
SRE oligonucleotide | < 1
